Measured values from patent US20210308031.

Tests used:
[1] = test system: (Pro-Pro-Gly)10 peptide model substrate
[2] = test system: Unhydroxylated collagen purified from strain PP434 (vector MMV411)

In the case of “AB fusion protein with the His tag (P4HA1 at the N-terminus, GSGSGS linker, P4HB at the C-terminus, six histidines), encoded by plasmid MMV502”, the “alpha-ketoglutaric acid consumption over time” value [1] is reported as “there was less a ketoglutaric acid in the sample with the AB fusion protein than the sample with native P4HA and P4HB proteins”, the “% Hydroxyproline (in vitro hydroxylation, 5 uM enzyme, 2 uM collagen, 32 C, 1 hour); enzyme from strain PP547” value [2] is reported as 34.8% and the “% Hydroxyproline (in vitro hydroxylation, 5 uM enzyme, 2 uM collagen, 32 C, 1 hour); enzyme from strain PP635” value [2] is reported as 26.6%.
